Assay [1] concerns the target T1, AsphyA T418D, full length (Avena sativa, UniProt P06593 1-1129, T418D, phycocyanobilin chromophore assembled).
T1 construct: Avena sativa phytochrome A, full length, with T418D; source: phycocyanobilin added in vitro
T1 sequence (looked up): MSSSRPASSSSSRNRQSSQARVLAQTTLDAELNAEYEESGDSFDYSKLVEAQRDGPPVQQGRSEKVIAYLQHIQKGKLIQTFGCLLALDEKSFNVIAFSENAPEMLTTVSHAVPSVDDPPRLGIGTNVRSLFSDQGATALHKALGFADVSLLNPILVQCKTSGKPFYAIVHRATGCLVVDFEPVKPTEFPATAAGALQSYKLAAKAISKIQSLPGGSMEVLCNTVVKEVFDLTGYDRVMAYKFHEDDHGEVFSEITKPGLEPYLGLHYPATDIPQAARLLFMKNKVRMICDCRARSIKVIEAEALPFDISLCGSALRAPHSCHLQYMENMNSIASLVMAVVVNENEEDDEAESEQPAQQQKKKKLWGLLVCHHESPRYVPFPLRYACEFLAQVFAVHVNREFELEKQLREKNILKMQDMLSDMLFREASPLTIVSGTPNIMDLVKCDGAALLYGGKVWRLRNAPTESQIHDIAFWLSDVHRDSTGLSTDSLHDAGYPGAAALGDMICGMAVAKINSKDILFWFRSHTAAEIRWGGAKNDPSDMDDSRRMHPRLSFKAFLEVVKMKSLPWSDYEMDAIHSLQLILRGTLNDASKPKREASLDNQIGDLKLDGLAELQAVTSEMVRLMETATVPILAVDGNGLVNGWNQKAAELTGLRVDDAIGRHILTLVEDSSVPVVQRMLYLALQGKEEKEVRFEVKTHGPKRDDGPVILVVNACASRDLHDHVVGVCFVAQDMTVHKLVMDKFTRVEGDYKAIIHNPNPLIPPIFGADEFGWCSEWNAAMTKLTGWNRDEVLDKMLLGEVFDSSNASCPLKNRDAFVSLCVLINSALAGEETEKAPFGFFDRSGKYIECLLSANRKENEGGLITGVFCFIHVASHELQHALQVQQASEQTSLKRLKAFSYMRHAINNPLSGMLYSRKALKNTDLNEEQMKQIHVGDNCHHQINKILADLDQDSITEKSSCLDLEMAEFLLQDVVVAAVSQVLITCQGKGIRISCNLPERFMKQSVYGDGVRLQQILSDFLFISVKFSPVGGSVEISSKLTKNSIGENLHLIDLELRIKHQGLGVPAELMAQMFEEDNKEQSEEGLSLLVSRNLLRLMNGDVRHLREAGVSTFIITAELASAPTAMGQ
Put plainly: pull-down; GST/strep-fused interacting protein (1.0 μg) held on glutathione resin, phytochrome (1.0 μg) in solution, Pr and Pfr forms both tested; 60 min at 4 °C in pull-down buffer (100 mM Tris-HCl pH 7.8, 1 mM EDTA, 150 mM NaCl, 100 μg/ml BSA); western blot with oat22 and anti-GST. As to conditions: both partners purified. Background: A western blot detects proteins with antibodies after separation by electrophoresis.

In assay [2] the target is T2, AsphyA D422R, full length (Avena sativa, UniProt P06593 1-1129, D422R, phycocyanobilin chromophore assembled).
T2 construct: Avena sativa phytochrome A, full length, with D422R; source: phycocyanobilin added in vitro
T2 sequence (looked up): T1 sequence (looked up) with D418T, D422R
The assay is described as above. Conditions: both partners purified.

Changes are numbered by the printed parent chain.

The results in this text go back to publication PMC4869175, “Evidence that phytochrome functions as a protein kinase in plant light signalling” (Nature Communications, 2016).

B1: GST/strep-fused FHL (natural protein, UniProt A8MR65 1-201, looked up)
chain: MDDADKSCSPSLDHSDINDPMIVAVESLDTSKKRKLHAEESDLLPLPKHFCSEHQASLVNSSCPSSVIDYAECSYAMENTKTSDEASSSASFTGPSLYMFKDSIYSTGSSSSGYAATSSIEQCFSKVDHKTQEDTQDFTHMEFIYHDSEFAVEDLQEVLNPVESYILSSARWSVSNQDSKEATTKPTIDQEFEQYFSTLMM
notes: FHL, which with FHY1 takes part in the nuclear localization of phyA; not shown: GST, N-terminal, kept
For B1, the binding result in assay [1] and in assay [2] was “binds” in each case.

B2: GST/strep-fused PIF3 (natural protein, UniProt O80536 1-524, looked up)
chain: MPLFELFRLTKAKLESAQDRNPSPPVDEVVELVWENGQISTQSQSSRSRNIPPPQANSSRAREIGNGSKTTMVDEIPMSVPSLMTGLSQDDDFVPWLNHHPSLDGYCSDFLRDVSSPVTVNEQESDMAVNQTAFPLFQRRKDGNESAPAASSSQYNGFQSHSLYGSDRARDLPSQQTNPDRFTQTQEPLITSNKPSLVNFSHFLRPATFAKTTNNNLHDTKEKSPQSPPNVFQTRVLGAKDSEDKVLNESVASATPKDNQKACLISEDSCRKDQESEKAVVCSSVGSGNSLDGPSESPSLSLKRKHSNIQDIDCHSEDVEEESGDGRKEAGPSRTGLGSKRSRSAEVHNLSERRRRDRINEKMRALQELIPNCNKVDKASMLDEAIEYLKSLQLQVQIMSMASGYYLPPAVMFPPGMGHYPAAAAAMAMGMGMPYAMGLPDLSRGGSSVNHGPQFQVSGMQQQPVAMGIPRVSGGGIFAGSSTIGNGSTRDLSGSKDQTTTNNNSNLKPIKRKQGSSDQFCGSS
notes: Probably Arabidopsis PIF3, as PIF1 and PIF4 are called Arabidopsis; not shown: GST, N-terminal, kept
B2: the binding result in assay [1] and in assay [2] was “binds” in each case.

B3: GST/strep-fused FHY1 (far-red elongated hypocotyl 1) (natural protein, UniProt Q8S4Q6 1-202, looked up)
chain: MPEVEVDNNNEKPSEINSFHHMIISSSKNVLKMEEVEVSKKRKFQTDQSDELSLLPLSKHTCFANVACSENTNGNSEIDTEYSMSSYVNSTTSMECNNDIEMKEESSGSCGEDKMISFESHLDYIYGTQNLEDFSEKVIENILYLDEQEEEEEDAKGCSSNAAKFVLSSGRWTVNQDDSTLHETKKPTIDQEFEQYFSTLML
notes: FHY1 (far-red elongated hypocotyl 1); not shown: GST, N-terminal, kept
For B3, the binding result in assay [1] and in assay [2] was “binds” each time.
